T1: muCD200R-Fc (Creative Biomart CD200R1-458M) (mouse, UniProt Q9ES57 26-238)
T1 construct: Captured on anti-human IgG Fc for the mouse CD200 measurements; also called Murine CD200R1; immobilized CD200R (muCD200); not shown: Fc of the bought fusion, not described (captured on anti-human IgG Fc)
T1 sequence (looked up): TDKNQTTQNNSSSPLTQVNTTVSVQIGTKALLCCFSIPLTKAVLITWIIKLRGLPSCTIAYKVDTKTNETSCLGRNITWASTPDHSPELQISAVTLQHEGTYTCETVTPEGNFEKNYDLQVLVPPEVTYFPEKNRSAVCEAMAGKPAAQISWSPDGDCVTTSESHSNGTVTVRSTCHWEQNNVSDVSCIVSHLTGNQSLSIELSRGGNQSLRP

B1: DS-192 (human CD200-Fc, K130Y, IgG4 Fc) (Fc fusion)
chain: QVQVVTQDEREQLYTPASLKCSLQNAQEALIVTWQKKKAVSPENMVTFSENHGVVIQPAYKDKINITQLGLQNSTITFWNITLEDEGCYMCLFNTFGFGYISGTACLTVYVQPIVSLHYKFSEDHLNITCSATARPAPMVFWKVPRSGIENSTVTLSHPNGTTSVTSILHIKDPKNQVGKEVICQVLHLGTVTDFKQTVNKGPPCPPCPAPEFLGGPSVFLFPPKPKDTLMISRTPEVTCVVVDVSQEDPEVQFNWYVDGVEVHNAKTKPREEQFNSTYRVVSVLTVLHQDWLNGKEYKCKVSNKGLPSSIEKTISKAKGQPREPQVYTLPPSQEEMTKNQVSLTCLVKGFYPSDIAVEWESNGQPENNYKTTPPVLDSDGSFFLYSRLTVDKSRWQEGNVFSCSVMHEALHNHYTQKSLSLSLGK
notes: also called 13 nM CD200-Fc; ha CD200-IgG4 Fc
B2: Mouse CD200R protein (Creative Biomart CD200R1-3280M) (receptor, UniProt Q9ES57 26-238, looked up)
chain: T1 sequence (looked up)
notes: also called Murine CD200R1; murine CD200R
B3: Recombinant Human CD200R, His-tagged (Creative Biomart CD200R1-320H) (receptor, UniProt Q8TD46 27-266, looked up)
chain: AAQPNNSLMLQTSKENHALASSSLCMDEKQITQNYSKVLAEVNTSWPVKMATNAVLCCPPIALRNLIIITWEIILRGQPSCTKAYKKETNETKETNCTDERITWVSRPDQNSDLQIRTVAITHDGYYRCIMVTPDGNFHRGYHLQVLVTPEVTLFQNRNRTAVCKAVAGKPAAHISWIPEGDCATKQEYWSNGTVTVKSTCHWEVHNVSTVTCHVSHLTGNKSLYIELLPVPGAKKSAKL
notes: Bought; also called human CD200 receptor; not shown: His tag
B4: Human CD200R1L (receptor, UniProt Q6Q8B3 24-239, looked up)
chain: GKQMTQNYSTIFAEGNISQPVLMDINAVLCCPPIALRNLIIITWEIILRGQPSCTKAYKKETNETKETNCTVERITWVSRPDQNSDLQIRPVDTTHDGYYRGIVVTPDGNFHRGYHLQVLVTPEVNLFQSRNITAVCKAVTGKPAAQISWIPEGSILATKQEYWGNGTVTVKSTCPWEGHKSTVTCHVSHLTGNKSLSVKLNSGLRTSGSPALSLL
notes: nothing is said of the reagent
B5: Murine wild-type CD200 monomer, his-tag (DS-131), printed in Table 7 as DS-198 (ligand, mouse, UniProt O54901 31-232, looked up)
chain: QVEVVTQDERKALHTTASLRCSLKTSQEPLIVTWQKKKAVSPENMVTYSKTHGVVIQPAYKDRINVTELGLWNSSITFWNTTLEDEGCYMCLFNTFGSQKVSGTACLTLYVQPIVHLHYNYFEDHLNITCSATARPAPAISWKGTGTGIENSTESHFHSNGTTSVTSILRVKDPKTQVGKEVICQVLYLGNVIDYKQSLDKG
notes: extracellular domain; the match of DS-131 to DS-198 follows the order of the sentence; also called wild type muCD200-Fc (the corresponding IgG2a Fc fusion); not shown: his tag
B6: Murine CD200 H82Y, T125I monomer, his-tag (DS-169), printed in Table 7 as DS-227 (ligand, mouse, UniProt O54901 31-232, looked up)
chain: B5 chain with H52Y, T95I
notes: extracellular domain; See the note of m9; not shown: his tag

Assay [1] deals with B3. Nature of the assay: SPR, CD200R flowed over immobilized CD200-Fc, 25 C, 1:1 fit. As for the experimental part:
(§1) For human CD200 constructs: anti-human Fc (GE Healthcare) was covalently immobilized on a BIAcore CM5 sensor chip (Cytiva, BR100530) by amine coupling using a Cytiva kit (BR100839) following the manufacturer's instructions, targeting immobilization of 8,000-11,000 RU. CD200-Fc proteins were diluted to 0.5 μg/mL to 4 μg/mL in running Buffer (1×HBS-EP+pH7.4 (Cytiva BR100669), HEPES Buffered Saline pH 7.4 containing 3 mM EDTA and 0.05% v/v Surfactant P20) and flowed for 25 to 100 seconds at 10 μL/min over the immobilized Anti-Human IgG Fc, with a stabilization time of 60 seconds. Between 35 and 250 RUs of CD200-Fc were captured, with higher RUs used for cynomolgus CD200R binding experiments. […] Analysis temperature was 25° C. This was followed by regeneration of the surface with 30-90 second pulse of 3M MgCl₂ flowed at […] flow rate followed by stabilization of the surface with 60 second flow of running buffer.
(§2) Curves obtained were fitted to 1:1 Langmuir binding model by setting Rmax and RI as local parameters. Rate equations using standard parameters (e.g. ligand concentration, time) were used for iterative curve fitting. […] Means of 2 experiments carried out on the same day are shown with standard deviation. Residue numbering for CD200 proteins refers to the pre-protein, containing a signal peptide which is cleaved during insertion into the endoplasmic reticulum.
(In SPR one partner is held on a chip, and binding of the other changes the refractive index at the surface.)

Assay [2] deals with T2, Recombinant Cyno CD200R, His-tagged (Creative Biomart CD200R1-3483C) (cynomolgus monkey).
T2 construct: Bought; also called cynomolgus CD200R1; cynomolgus CD200R
Kind of assay: SPR, cyno CD200R1 flowed over immobilized CD200-Fc, 25 C, 1:1 fit, mean of 2 experiments with standard deviation. As for the experimental part: as §1, §2

For assay [3], the target named is T2, Recombinant Cyno CD200R, His-tagged …. Kind of assay: SPR, cyno CD200R1 flowed over immobilized CD200-Fc, 25 C, 1:1 fit. Here is the method: as §1, §2
Assay [4] addresses B1. Nature of the assay: SPR (BIAcore).
Assay [5] concerns the target B1. Nature of the assay: SPR, CD200R flowed over immobilized CD200-Fc, 25 C, 1:1 fit, mean of 2 experiments with standard deviation. Here is the method: as §1, §2
Assay [6] addresses T1, muCD200R-Fc (Creative Biomart …). Nature of the assay: SPR, his-tag mouse CD200 monomer flowed over muCD200R-Fc captured on anti-human Fc, 25 C, 1:1 fit, mean of 2 experiments with standard deviation. Here is the method: (§3) For mouse CD200 constructs, muCD200R-Fc (Creative Biomart CD200R1-458M) diluted to 1 μg/mL in running buffer was flowed over the immobilized Anti-Human IgG Fc, with CD200 monomers serially diluted and flowed over captured CD200R. Other details were as above. Data analysis: experimental sensorgrams were analyzed in BIAevaluation software (GE Healthcare). The curves obtained were fitted to 1:1 Langmuir binding model by setting Rmax and RI as local parameters. Rate equations using standard parameters (e.g. ligand concentration, time) were used for iterative curve fitting. Closeness of fit was determined by algorithms provided by the manufacturer in the BIAevaluation software, and data accepted if the Chi² value was less than 10% of Rₘₐₓ, and the U value was less than or equal to 15.
as §2

Assay [7] shares this target. Kind of assay: SPR, his-tag mouse CD200 monomer flowed over muCD200R-Fc captured on anti-human Fc, 25 C, 1:1 fit. Here is the method:
as §3, §2

The target is the same in assay [8]. Kind of assay: SPR, monomeric binding. As for the experimental part: as §3, §2

Where a chain is given by its changes, count along the chain named. In names and notes the source's numbering stands.

B1: the T1/2 in assay [1] is 3.1 min; in assay [3], 0.32 min. Moreover, the Kd (in general, a measure of binding affinity in units of concentration) in assay [2] was 459 nM.

Consider B2, for which the binding result in assay [4] is recorded as “no binding”.

In assay [5], B3 had a Kd of 12.5 nM.

For B4, the binding result in assay [4] is “no binding”.

In assay [6], B5 returned a Kd of 584 nM. This molecule also displayed a T1/2 in assay [7] of 0.288 min.

As to B6, in assay [8], the “fold higher affinity than wild type” value was about 14 fold. The molecule also yielded a Kd in assay [6] of 43.3 nM. In assay [7], this molecule registered a T1/2 of 1.96 min.

The record behind these values is patent US20260116951A1 (DUCENTIS BIOTHERAPEUTICS, published 2026).
